Data published in patent publication EP1226177B1 (GENENTECH, INC., dated 2008).

Biological target: T1, gD-huPSCA expressed on the surface of transfected cells (Herpes Simplex virus; human, UniProt O43653 12-114)
T1 construct: domain: 25 amino acids of the mature gD; also called gD-PSCA; gDPSCA
Assay: cold competition of 125I-Mab 2403 by unlabeled Mab 2403 on PC3.gD.hu PSCA cells, four parameter fit (m3 = IC50)

B1: anti-PSCA monoclonal antibody 5F2.4H4.1E3 (antibody, V domains shown)
VH: QVQVQQPGAELVKPGAPVKLSCKASGYTFTNYWLNWVKQRPGRGLEWIGRIDPSDSEIHYDQKFKDKATLTVDKSSSTAYIQLSSLTSEDSAVYYCALTGIYAMAYWGQGTSVTVSS
VL: DIVMTQAAPSVPVTPGESVSISCRSSKSLLHSNGNTYLYWFLQRPGQSPQLLIYRMSNLASGVPDRFSGSGSGTAFTLRISRVEAEDVGVYYCLQHLEYPYTFGGGTKLELKR
notes: also called 2403; Mab 2403
  IC50: 13 nM
